This is an account of results in paper PMC11470758.

Series [1] concerns the target T1, MBP-GlcR (MGlcR) (Paracoccus denitrificans) (UniProt A1BAC0).
T1 sequence: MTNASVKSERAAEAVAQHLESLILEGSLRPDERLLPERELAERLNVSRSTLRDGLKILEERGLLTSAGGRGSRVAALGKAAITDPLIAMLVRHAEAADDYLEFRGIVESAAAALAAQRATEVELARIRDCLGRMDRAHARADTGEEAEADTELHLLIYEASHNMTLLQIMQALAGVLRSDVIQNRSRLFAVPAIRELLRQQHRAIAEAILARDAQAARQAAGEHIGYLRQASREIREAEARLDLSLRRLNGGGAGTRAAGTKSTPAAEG
Briefly: EMSA. The conditions noted are these: EMSA buffer, salt, pH and temperature not given in the material. On the technique in general: A gel shift assay detects complexes by their altered migration in electrophoresis.

The next series addresses T2, MBP-GlcR (MGlcR) (Paracoccus denitrificans, UniProt A1BAC0 1-269).
T2 sequence: T1 sequence
Kind of series: EMSA.

With “CTTTCTAGATCACGCACGCGCCAGGATGCCCGCATCGGGCCGGGGCATGGCAATACCGGACAAGCTCTCCTCCCTTGGTCGAACGGCAGGCCCGTGTCCTGCCCTGCATTCTTGGTATAATTTTCAGACCACATTAGTCAATCGGTATTTTTCTGGACCGACACGCCCGTCCTGTGCTTACATGGCAGGGATCCGACAACCGCATGAGCGCCCATGACCAACGCATCCGTGAAATCCGAACGCGCCGCCGAGGCCGTGGCCCAGTGAGAATTCATATC (double strand) [pden4399-4400 intergenic sequence]”, the binding entry in series [1] is given as “binds”.

B1: fragment #3 (dsDNA)
DNA 1: GTCCAGAAAAATACCGATTGACTAATGTGGTCTGAAAATTATACCAAGAATGCAGGGCAG
DNA 2: CTGCCCTGCATTCTTGGTATAATTTTCAGACCACATTAGTCAATCGGTATTTTTCTGGAC
As to B1, the binding result with MBP-GlcR (MGlcR) is on record as “binds”.
